# Measured values from patent US20160068605A1 (Janssen / Centocor, published 2016).
# Changes are numbered by the printed parent chain. Names may count otherwise.
# T1: Recombinant human CD123 SP2 ECD protein (human, UniProt P26951 101-303)
# T1 construct: also called rhCD123 SP2; CD123 ECD SP2
# T1 sequence: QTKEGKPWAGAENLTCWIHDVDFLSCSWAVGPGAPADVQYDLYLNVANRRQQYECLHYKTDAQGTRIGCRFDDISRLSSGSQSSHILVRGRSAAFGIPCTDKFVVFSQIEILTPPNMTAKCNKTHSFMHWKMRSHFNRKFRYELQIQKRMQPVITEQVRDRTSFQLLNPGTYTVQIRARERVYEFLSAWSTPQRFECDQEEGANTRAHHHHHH
# T2: Recombinant human CD123 SP1 ECD-His tag protein (human, UniProt P26951 20-305)
# T2 construct: bought from R&D Systems (#301-R3/CF); biotinylated for some assays; also called rhCD123 SP1; huCD123 ECD SP1
# T2 sequence: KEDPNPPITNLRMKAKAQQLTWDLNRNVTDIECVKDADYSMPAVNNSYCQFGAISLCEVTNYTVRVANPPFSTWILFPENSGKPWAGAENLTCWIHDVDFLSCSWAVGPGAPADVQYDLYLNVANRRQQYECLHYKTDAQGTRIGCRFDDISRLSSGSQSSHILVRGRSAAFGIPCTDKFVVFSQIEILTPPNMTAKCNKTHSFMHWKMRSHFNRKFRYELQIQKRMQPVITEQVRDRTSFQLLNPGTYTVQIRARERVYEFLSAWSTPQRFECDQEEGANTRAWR
# T3: human CD123 SP2 ECD displayed on pDisplay-transfected cells (human, UniProt P26951 101-305)
# T3 construct: ECD anchored on the surface of stably transfected HEK293 cells; also called hCD123 SP2 cells; pDisplay CD123SP2
# T3 sequence: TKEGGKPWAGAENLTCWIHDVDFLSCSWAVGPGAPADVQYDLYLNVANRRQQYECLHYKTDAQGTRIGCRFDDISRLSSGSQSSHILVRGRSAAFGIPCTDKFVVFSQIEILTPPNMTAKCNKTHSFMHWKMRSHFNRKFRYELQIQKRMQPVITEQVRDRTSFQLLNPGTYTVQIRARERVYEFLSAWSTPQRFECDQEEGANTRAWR
# T4: human CD123 SP1 ECD displayed on pDisplay-transfected cells (human, UniProt P26951 20-305)
# T4 construct: ECD anchored on the surface of stably transfected HEK293 cells by the PDGFR transmembrane domain; also called hCD123 SP1 cells; hCD123 cells
# T4 sequence: T2 sequence
# B1: CD3B143 (antibody, IgG1, V domains shown)
# VH: EVQLVESGGGLVQPGGSLRLSCAASGFTFNTYAMNWVRQAPGKGLEWVARIRSKYNNYATYYAASVKGRFTISRDDSKNSLYLQMNSLKTEDTAVYYCARHGNFGNSYVSWFAYWGQGTLVTVSS
# VL: QAVVTQEPSLTVSPGGTVTLTCRSSTGAVTTSNYANWVQQKPGQAPRGLIGGTNKRAPGTPARFSGSLLGGKAALTLSGAQPEDEAEYYCALWYSNLWVFGGGTKLTVL
# notes: IgG1 constant region with L234A, L235A, F405L; human lambda light chain constant region
# B2: CD3B158 (antibody, IgG1, V domains shown)
# VH: B1 VH with R19K, P41S, A49G, N57G, S80T, L81A, A99T
# VL: B1 VL with A2T, A80V
# notes: as for B1
# B3: CD3B151 (antibody, IgG1, V domains shown)
# VH: B1 VH with V5L, A64D, D76N, S80T, K89R, T90A, A99V, R100K
# VL: B1 VL
# notes: as for B1
# B4: CD3B154 (antibody, IgG1, V domains shown)
# VH: B1 VH with V5L, A64D, D76N, S80T, K89R, T90A, A99V, R100K
# VL: B1 VL with A2T, A80V
# notes: as for B1
# B5: CD3B155 (antibody, IgG1, V domains shown)
# VH: B1 VH with R19K, P41S, A49G, N57G, S80T, L81A, A99T
# VL: B1 VL
# notes: as for B1
# B6: CD3B152 (antibody, IgG1, V domains shown)
# VH: B1 VH with V5L, A64D, D76N, S80T, K89R, T90A, A99V, R100K
# VL: QSVLTQPPSVSAAPGQKVTISCRSSTGAVTTSNYANWVQQLPGTAPKGLIGGTNKRAPGIPDRFSGSKSGTSATLGITGLQTGDEADYYCALWYSNLWVFGGGTKLTVL
# notes: as for B1
# B7: CD3B156 (antibody, IgG1, V domains shown)
# VH: B1 VH with R19K, P41S, A49G, N57G, S80T, L81A, A99T
# VL: B6 VL
# notes: as for B1
# B8: CD3B124 (antibody, human IgG1, V domains shown)
# VH: EVKLLESGGGLVQPKGSLKLSCAASGFTFNTYAMNWVRQAPGKGLEWVARIRSKYNNYATYYADSVKDRFTISRDDSQSILYLQMNNLKTEDTAMYYCVRHGNFGNSYVSWFAYWGQGTLVTVSA
# VL: QAVVTQESALTTSPGETVTLTCRSSTGAVTTSNYANWVQEKPDHLFTGLIGGTNKRAPGVPARFSGSLIGDKAALTITGAQTEDEAIYFCALWYSNLWVFGGGTKLTVL
# notes: Chimeric: VH and VL of SP34 with murine framework and a human IgG1 Fc; also called in-house chimeric SP34-derived antibody
# B9: bispecific antibody Ab 3978 (bispecific antibody, human IgG4 S228P, kappa, lambda, F234A L235A)
# heavy 1: EVQLLESGGGLVQPGGSLRLSCAASGFTFNTYAMNWVRQAPGKGLEWVARIRSKYNNYATYYADSVKGRFTISRDNSKNTLYLQMNSLRAEDTAVYYCVKHGNFGNSYVSWFAYWGQGTLVTVSSASTKGPSVFPLAPCSRSTSESTAALGCLVKDYFPEPVTVSWNSGALTSGVHTFPAVLQSSGLYSLSSVVTVPSSSLGTKTYTCNVDHKPSNTKVDKRVESKYGPPCPPCPAPEAAGGPSVFLFPPKPKDTLMISRTPEVTCVVVDVSQEDPEVQFNWYVDGVEVHNAKTKPREEQFNSTYRVVSVLTVLHQDWLNGKEYKCKVSNKGLPSSIEKTISKAKGQPREPQVYTLPPSQEEMTKNQVSLTCLVKGFYPSDIAVEWESNGQPENNYKTTPPVLDSDGSFLLYSKLTVDKSRWQEGNVFSCSVMHEALHNHYTQKSLSLSLGK
# light 1: QAVVTQEPSLTVSPGGTVTLTCRSSTGAVTTSNYANWVQQKPGQAPRGLIGGTNKRAPGTPARFSGSLLGGKAALTLSGAQPEDEAEYYCALWYSNLWVFGGGTKLTVLGQPKAAPSVTLFPPSSEELQANKATLVCLISDFYPGAVTVAWKADSSPVKAGVETTTPSKQSNNKYAASSYLSLTPEQWKSHRSYSCQVTHEGSTVEKTVAPTECS
# heavy 2: not shown
# light 2: EIVLTQSPGTLSLSPGERATLSCRASQSVSSSYLAWYQQKPGQAPRLLIYGASSRATGIPDRFSGSGSGTDFTLTISRLEPEDFAVYYCQQDYGFPWTFGQGTKVEIKRTVAAPSVFIFPPSDEQLKSGTASVVCLLNNFYPREAKVQWKVDNALQSGNSQESVTEQDSKDSTYSLSSTLTLSKADYEKHKVYACEVTHQGLSSPVTKSFNRGEC
# notes: IgG4-PAA; CD3 arm of CD3B217 (first heavy and light chain), CD123 arm of I3RB217 (I3RB18)
# B10: bispecific antibody Ab 7955 (bispecific antibody, human IgG4 S228P, kappa, lambda, F234A L235A)
# heavy 1: B9 heavy 1
# light 1: B9 light 1 with A2T, A80V
# heavy 2: not shown
# light 2: B9 light 2
# notes: IgG4-PAA; CD3 arm of CD3B218, CD123 arm of I3RB217 (I3RB18)
# Legend:
# [1] = target: T5, cell-surface CD3 epsilon on primary human T cells (human, UniProt P07766 23-207); test: flow cytometry on primary human T cells, anti-human IgG Alexa Fluor 647; MFI
# T5 construct: whole, on cells; part of the CD3/TCR complex on the cells
# Description: (§1) The resulting panel of anti-CD3 antibodies was tested for binding against cell-surface CD3ε on primary human T cells. To do this, binding of antibodies from expression supernatants was visualized using a polyclonal anti-human secondary antibody and analyzed by flow cytometry. Briefly, binding of anti-CD3 antibodies to cell-surface CD3ε was assessed by flow cytometry using primary Human T lymphocytes purified by negative selection (Biological Specialty, Colmar, USA). Expression supernatants or purified antibodies were normalized to 10 μg/ml in media or FACS buffer (BD BioSciences), respectively. 2×10⁵ cells were aliquoted into wells of a 96 well round-bottomed plate (CoStar) for labeling. Antibodies in expression supernatant were added to cells and incubated for 45 min at 4° C. Following centrifugation at 1300 rpm for 3 min and removal of supernatant, 50 μL of anti-human IgG (H+L) Alexa Fluor 647 secondary antibody (Life technologies Inc.) was incubated with the cells at a final concentration of 10 μg/mL for 30 min at 4° C. away from direct light. Following washing and resuspension in 30 μL FACs buffer (BD BioSciences). Sample collection was performed on an Intellicyt HTFC system using ForeCyt software. Viable single cells were gated prior to analysis of binding using the green or red fixable live/dead dyes (Life Technologies Inc.) and forward/side scatter area and height parameters, respectively. Graphs were generated in GraphPad Prism version 5 using mean fluorescence intensity values.
# [2] = target: T6, cell-surface CD3 epsilon on primary cynomolgus T cells (cynomolgus monkey, UniProt Q95LI5 22-198); test: flow cytometry on primary cynomolgus CD4+ T cells, anti-human IgG Alexa Fluor 647; MFI
# T6 construct: whole, on cells; also called cynomolgus CD3e; Cyno T-cells
# Description: as §1
# Binding analysis of the anti-CD3 hits to primary cynomolgusCD4⁺ T cells was then tested in order to assess the retention of cross-reactivity. Purified CD4⁺ T cells from the peripheral blood of cynomolgus monkeys (Zen Bio, Triangle Research Park, USA were used). Assay protocols were similar to those described above.
# [3] = target: T1, Recombinant human CD123 SP2 ECD protein; test: SPR Biacore T200, captured antibody
# Description: (§2) Kinetic studies were performed at 25° C. using a Biacore T200 (Biacore, Inc., now part of GE Healthcare). […] The carboxymethyl groups of dextran were activated with N-Ethyl-N′-(3-Dimethylaminopropyl)carbodiimide (EDC) and N-hydroxysuccinimide (NHS). The anti-Fc antibody was coupled at pH 4.5 in 10 mM sodium acetate. Any remaining reactive sites on the surface were blocked by reaction with ethanolamine. […] 40-70 RU of antibody were captured. […] Association data was collected for 2 min followed by 10 min of dissociation. The surface was regenerated with 30 μL of 100 mM H3PO4 100 μL/min, followed by 50 mM NaOH. The samples for kinetic analysis were prepared in PBS-based buffer (D-PBS containing 3 mM EDTA and 0.005% surfactant P20). Data reported is the difference in SPR signal between the flow cell containing the captured antibody and a reference cell without captured antibody. Additional instrumental contributions to the signal were removed by subtraction of the data from the blank injection from the reference-subtracted signal. Data were analyzed by fitting association and dissociation phases at all concentrations (global fit) with a 1:1 binding model using the BIAevaluation software (BIAcore, Inc.).
# [4] = target: T2, Recombinant human CD123 SP1 ECD-His tag …; test: SPR Biacore T200, captured antibody
# Description: as §2
# [5] = target: T3, human CD123 SP2 ECD displayed on …; test: MSD-CAT on pDisplay cells
# Description: (§3) The MSD-CAT was developed in-house as a label-free method to determine affinity using intact cells in a high throughput format. […] Cell lines used were human pDisplay CD123SP1 and pDisplay CD123SP2. […] These samples were prepared in DMEM Glutamax medium containing 0.05% Azide, 1% BSA, 3 mM EDTA. […] After equilibration the plate was centrifuged for 5 minutes ˜1000 rpm and free anti-CD3 detected on the supernatant. […] The assay buffer was removed without washing and 50 uL/well of 0.7 ug/mL of biotinylated antigen in assay buffer were added to MSD plates and incubated overnight (˜16 hours at 4° C.).
# [6] = target: T4, human CD123 SP1 ECD displayed on …; test: MSD-CAT on pDisplay cells
# Description: as §3
# [7] = target: T6, cell-surface CD3 epsilon on primary …; test: flow cytometry competition with labeled CD3B146 on T cells
# Text: (§4) The format involved competition binding using a fixed concentration of labeled anti-CD3 mAb of known affinity and increasing concentrations of unlabeled test Abs (Ashkenazi A et al. PNAS: 88:10535, 1991.).
# [8] = target: T5, cell-surface CD3 epsilon on primary …; test: as above
# Text: as §4
# T6 sequence (Q95LI5 22-198): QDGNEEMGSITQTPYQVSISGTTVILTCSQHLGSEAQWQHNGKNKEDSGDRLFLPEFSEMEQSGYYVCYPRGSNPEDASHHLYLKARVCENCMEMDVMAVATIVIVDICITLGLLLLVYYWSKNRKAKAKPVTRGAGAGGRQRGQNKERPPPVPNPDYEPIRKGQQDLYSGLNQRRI
# T5 sequence (P07766 23-207): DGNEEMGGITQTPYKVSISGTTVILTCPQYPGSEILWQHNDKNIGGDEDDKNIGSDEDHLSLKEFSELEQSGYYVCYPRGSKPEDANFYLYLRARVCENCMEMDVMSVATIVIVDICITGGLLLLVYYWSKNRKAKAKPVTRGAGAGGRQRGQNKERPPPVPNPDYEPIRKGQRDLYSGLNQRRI
binder,measurement,setting,value
B1,binding result,[1],binds
same,binding result,[2],binds
B2,binding result,[1],binds
same,binding result,[2],binds
B3,binding result,[1],binds
same,binding result,[2],binds
B4,binding result,[1],binds
same,binding result,[2],binds
B5,binding result,[1],binds
same,binding result,[2],binds
B6,binding result,[1],no binding
same,binding result,[2],no binding (tested: not printed)
B7,binding result,[1],binds
same,binding result,[2],binds
B8,binding result,[2],binds
B9,Kd,[3],356 pM
same,koff,[3],0.0011 s⁻¹
same,kon,[3],3.12e+06 M⁻¹ s⁻¹
same,Kd,[4],1470 pM
same,koff,[4],0.00083 s⁻¹
same,kon,[4],564000 M⁻¹ s⁻¹
same,Kd,[5],528 pM
same,Kd,[6],153 pM
same,Kd,[7],215000 pM
same,Kd,[8],241000 pM
B10,Kd,[3],344 pM
same,koff,[3],0.0011 s⁻¹
same,kon,[3],3.33e+06 M⁻¹ s⁻¹
same,Kd,[4],1490 pM
same,koff,[4],0.00084 s⁻¹
same,kon,[4],562000 M⁻¹ s⁻¹
same,Kd,[5],436 pM
same,Kd,[6],136 pM
same,Kd,[7],169000 pM
same,Kd,[8],210000 pM
